Test [1] concerns the target MICA antigen (UniGene Hs.130838) with a C-terminal BirA tag (human) (UniProt Q29983). Description: flow cytometry of MICA-coated streptavidin beads, antibody directly conjugated to PE; legend box says 0.001ug, the label inside the plot says 0.24µg/ml (they disagree); streptavidin bead without MICA: 1.95. On the technique in general: In flow cytometry, cells or beads pass a laser one at a time.

Test [2] has the same target. Description: flow cytometry of MICA-coated streptavidin beads, antibody directly conjugated to PE; legend box says 0.024ug, the label inside the plot says 0.01µg/ml (they disagree); streptavidin bead without MICA: 1.95.
For test [3] the target is unchanged. Description: flow cytometry of MICA-coated streptavidin beads, antibody directly conjugated to PE; legend box says 0.005ug, the label inside the plot says 1.2µg/ml (they disagree); streptavidin bead without MICA: 1.98.
Test [4] has the same target. Description: flow cytometry of MICA-coated streptavidin beads, antibody directly conjugated to PE; legend box says 0.0002ug, label inside the plot 0.002µg/ml; streptavidin bead without MICA: 2.16.
The target is the same in test [5]. Description: flow cytometry of MICA-coated streptavidin beads, antibody directly conjugated to PE; legend box says 0.12ug, the label inside the plot says 0.05µg/ml (they disagree); streptavidin bead without MICA: 1.95.
Test [6] deals with human MICA on transduced B16 melanoma cells (human) (UniProt Q29983). Description: flow cytometry of B16 cells transduced with human MICA, antibody at 10 ug/ml; unstained 11.4; the same antibody on untransduced B16: 7.49 (unstained 7.12).
In test [7] the target is MICA antigen (UniGene Hs.130838) with a C-terminal BirA tag (human) (UniProt Q29983). Description: flow cytometry of MICA-coated streptavidin beads, Alexa488 anti-human IgG; antibody at 1.2µg/ml; streptavidin bead without MICA: 2.16.
Test [8] has the same target. Description: flow cytometry of MICA-coated streptavidin beads, Alexa488 anti-human IgG; antibody at 0.24µg/ml; streptavidin bead without MICA: 2.3.
Test [9] has the same target. Description: flow cytometry of MICA-coated streptavidin beads, Alexa488 anti-human IgG; antibody at 30µg/ml; streptavidin bead without MICA: 3.53.
For test [10] the target is unchanged. Description: flow cytometry of MICA-coated streptavidin beads, Alexa488 anti-human IgG; antibody at 0.05µg/ml; streptavidin bead without MICA: 2.18.
For test [11] the target is unchanged. Description: flow cytometry of MICA-coated streptavidin beads, Alexa488 anti-human IgG; antibody at 6µg/ml; streptavidin bead without MICA: 2.63.
In test [12] the target is human MICA on transduced B16 melanoma cells (human) (UniProt Q29983). Description: […], antibody at 10 ug/ml; […].
In test [13] the target is T1, recombinant MICA alpha 3 domain (human, UniProt Q29983 206-299).
T1 construct: domain: alpha 3 domain; also called Alpha 3 MICA Domain
T1 sequence (looked up): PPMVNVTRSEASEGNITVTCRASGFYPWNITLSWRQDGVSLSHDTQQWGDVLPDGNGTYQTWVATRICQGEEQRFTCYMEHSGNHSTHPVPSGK
Description: cytometric bead assay: biotinylated MICA alpha 3 domain on streptavidin beads, FITC anti-human IgG, flow cytometry.

Test [14] has as its target T2, recombinant MICA*009 conjugated to Luminex beads (commercial kit) (human, UniProt Q29983 26-307).
T2 chain: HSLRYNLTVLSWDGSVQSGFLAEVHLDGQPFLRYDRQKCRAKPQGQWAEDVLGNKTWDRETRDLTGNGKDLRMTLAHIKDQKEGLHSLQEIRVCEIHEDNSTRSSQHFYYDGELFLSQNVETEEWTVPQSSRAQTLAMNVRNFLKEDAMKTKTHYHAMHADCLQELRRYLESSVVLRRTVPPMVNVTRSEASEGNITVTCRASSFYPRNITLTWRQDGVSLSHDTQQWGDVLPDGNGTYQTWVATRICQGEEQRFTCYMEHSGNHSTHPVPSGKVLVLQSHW
Description: Luminex bead assay (One Lambda kit), PE anti-human IgG secondary; bars assigned by their order in the legend box.

Chain of MICA antigen (UniGene Hs.130838) with a C-terminal BirA tag (human) (Q29983 other isoform, or with tags, fused parts or gaps limits assumed): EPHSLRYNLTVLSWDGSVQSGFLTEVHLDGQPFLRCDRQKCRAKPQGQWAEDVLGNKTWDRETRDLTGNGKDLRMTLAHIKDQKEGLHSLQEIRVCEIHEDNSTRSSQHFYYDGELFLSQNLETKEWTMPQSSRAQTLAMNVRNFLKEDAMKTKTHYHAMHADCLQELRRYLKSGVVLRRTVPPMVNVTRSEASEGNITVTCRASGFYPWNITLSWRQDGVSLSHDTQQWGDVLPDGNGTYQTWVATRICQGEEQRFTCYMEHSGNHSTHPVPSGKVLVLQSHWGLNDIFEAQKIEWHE
Chain of human MICA on transduced B16 melanoma cells (human) (Q29983 24-383): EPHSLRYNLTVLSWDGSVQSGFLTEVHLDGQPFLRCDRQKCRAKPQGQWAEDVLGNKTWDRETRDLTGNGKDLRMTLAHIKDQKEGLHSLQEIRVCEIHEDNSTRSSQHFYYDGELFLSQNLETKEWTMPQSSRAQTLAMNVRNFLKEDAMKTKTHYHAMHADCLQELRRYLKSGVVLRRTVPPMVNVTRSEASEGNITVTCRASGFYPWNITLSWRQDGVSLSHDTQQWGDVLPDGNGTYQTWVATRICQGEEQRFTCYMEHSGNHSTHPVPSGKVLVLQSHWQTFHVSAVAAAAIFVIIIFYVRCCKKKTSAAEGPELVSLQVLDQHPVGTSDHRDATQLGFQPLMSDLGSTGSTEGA

In the case of “commercial anti-MICA/MICB monoclonal antibody (clone 6D4, BioLegend)”, the fluorescence value (statistic not given, FL2-H) in [1] was 16.8; in test [2], 194; in [3], 65.9; in test [4], 4.31; in test [5] it was 391. The molecule also gave a Geom. Mean:FL1-H in test [6] of 188.

As for “negative control antibody (TTCF specific)”, the fluorescence value (statistic not given, FL1-H) in [7] was 2.27; in test [8], 2.28; in test [9], 3.43; in test [10], 2.23; in test [11] it was 2.62. In test [12], the Geom. Mean:FL1-H was found to be 11.5.

B1: CM33322 Ab11 (antibody, V domains shown)
VH: QVQLQESGPGLVKPSENLSLTCTVSDASMSDYHWSWIRQAAGKGLEWIGRMYSTGSPYYKPSLKGRVTMSIDTSKNQFSLKLASVTAADTAIYYCASGQHIGGWVPPDFWGQGTLVTVSS
VL: DIVMTQTPLSSPVTLGQPASISCRSSEGLVYSDGDTYLSWFHQRPGQPPRLLIYKISNRFSGVPDRFSGSGAGTDFTLKISRVEAEDVGVYYCMQATHFPWTFGQGTKVEVKR
notes: also called CM33322 mAb11; CM33322 11
On to B1, for which the binding result in test [13] is recorded as “no binding (tested: 10 µg/ml)”.

B2: CM24002 Ab4 (antibody, V domains shown)
VH: QVQLQESGPGLVKPSGTLSLTCAVSGASITNGAWWSWVRQPPGKGLEWIGEIYLNGNTNSNPSLKSRVIISVDKSKNHFSLTLNSVTAADTAVYYCAKNAAYNLEFWGQGALVTVSS
VL: EIVLTQSPGTLSLSPGERATLSCRASQTVSSPYVAWYQQKRGQAPRLLIYGASTRATGIPDRFSGSGSGTDFTLTISRLEPEDFAVYYCQQYDRSYYYTFGQGTKLEIK
notes: also called anti-MICA antibody ID-7; antibody ID 7
Regarding B2, the binding result in test [13] is on record as “no binding (tested: 10 µg/ml)”.

B3: MICA-Ab20 (antibody, V domains shown)
VH: QVQLQQWGAGLLKPSETLALTCAVSGGSFTDHYWSWIRQAPGKGLEWIGEINHSGVTNYNPSLKSRLTISVDTSKSQFSLRLTSVTAADTALYYCAKTGLYYDDVWGTFRPRGGFDSWGQGTLVTVSS
VL: DIVMTQSPDSLAVSLGERATINCKSSQSILYSSDNKNYLAWYQHKPGQPPKLLFYWASIRESGVPDRFSGGGSGTDFTLTISSLQAEDVAVYYCQQYYSPPCSFGQGTKLEIQ
notes: also called anti-MICA antibody ID-1; antibody ID 1
B3: the binding result in test [14] is on record as “no binding (tested: 200 µg/ml)”.

B4: CM24002 Ab2 (antibody, V domains shown)
VH: QVQLQESGPGLVEPSGTLSLTCTVSGGSISRSNWWSWVRQPPGEGLEWIGEIHHIGRSSYNPSLKSRVTMSVDKSQNQFSLRLTSVTAADTAVYYCAKNGYYAMDVWGQGTTVTVSS
VL: EIVLTQSPGTLSLSPGERATLSCRASQSVSSDFLAWYQQKPGQAPRLLIYATSFRATGISDRFSGSGSGTDFSLTINRLEPEDFAVYYCQHYRSSPPWYTFAQGTKLDMRRTVAAPSV
notes: also called anti-MICA antibody ID-6; antibody ID 6
Take B4: the binding result in test [13] was “no binding (tested: 10 µg/ml)”.

Source of the values: patent US20160046716A1 (Dana-Farber, published 2016).
